In series [1] the test system is Faustovirus capping enzyme (FCE) (Faustovirus). Particulars: 5'-triphosphate; soluble, 37 C, 30 min, SAM, GTP.
For series [2], the system named is SNAP-FCE-T7 RNAP fusion (Faustovirus / phage T7). Particulars: 5'-triphosphate; soluble fusion.

Here are results for one substance from patent US20230287376.

ppp25mer FAM RNA: the activity in series [1] and in series [2] was more than 95 % capping in each case.
